What is called IC50 is the concentration needed to halve the response being measured. A lower IC50 goes with greater potency. Usually Kd stands for the free concentration of one partner at which half of the binding sites on the other are occupied at equilibrium, for simple one-to-one binding. Higher therefore signals lower affinity.

This assay deals with human proliferating cell nuclear antigen (PCNA), no tag (human, UniProt P12004 1-261). As to the kind of experiment: fluorescence polarisation. Background: Fluorescence polarisation rises when a labelled molecule tumbles more slowly, as on binding a larger partner.
human proliferating cell nuclear antigen (PCNA), no tag, sequence (P12004 whole entry): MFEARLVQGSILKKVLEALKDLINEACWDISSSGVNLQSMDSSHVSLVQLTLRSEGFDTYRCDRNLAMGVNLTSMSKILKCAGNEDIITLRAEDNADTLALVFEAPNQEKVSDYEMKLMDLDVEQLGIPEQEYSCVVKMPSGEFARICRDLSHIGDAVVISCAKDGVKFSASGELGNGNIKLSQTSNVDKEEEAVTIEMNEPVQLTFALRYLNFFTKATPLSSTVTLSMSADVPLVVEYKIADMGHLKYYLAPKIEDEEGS

B1: divalent p21 peptide (peptide)
chain: KRRQTSMTDFYHSKRRLIFSGGSGGSGGSGGSGGSGGSKRRQTSMTDFYHSKRRLIFS
As to B1, it took 1000 nM to reach half-maximal inhibition (IC50) and the Kd came out at 30 ± 2 nM.

B2: trivalent p21 peptide (peptide)
chain: KRRQTSMTDFYHSKRRLIFSGGSGGSGGSGGSGGSGGSKRRQTSMTDFYHSKRRLIFSGGSGGSGGSGGSGGSGGSKRRQTSMTDFYHSKRRLIFS
B2: the concentration for half-maximal inhibition (IC50) worked out at 600 nM and the Kd turned out to be 2.2 ± 0.2 nM.

The values are drawn from article PMC3417354 (Analytical biochemistry, 2012).
